Source: US20030049702A1 (BURNHAM INSTITUTE, published 2003)

Assays:
Assay in all cases: GST pull-down of in vitro translated 35S-labeled protein, autoradiography; '-' = no interaction
[1] = biological target: T1, Fas (in vitro translated, 35S-labeled) (human, UniProt P25445 1-335, limits assumed)
T1 construct: also called Fas [CD95]
T1 sequence (looked up): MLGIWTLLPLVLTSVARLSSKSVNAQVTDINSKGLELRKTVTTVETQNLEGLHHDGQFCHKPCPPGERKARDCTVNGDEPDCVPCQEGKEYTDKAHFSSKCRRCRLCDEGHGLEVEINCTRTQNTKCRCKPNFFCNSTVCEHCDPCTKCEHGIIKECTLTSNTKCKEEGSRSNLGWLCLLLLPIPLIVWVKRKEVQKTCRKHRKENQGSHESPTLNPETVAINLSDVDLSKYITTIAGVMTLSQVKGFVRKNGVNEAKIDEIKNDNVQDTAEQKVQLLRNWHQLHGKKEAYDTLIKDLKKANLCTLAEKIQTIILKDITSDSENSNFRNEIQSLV

[2] = biological target: Dr-4 (in vitro translated, 35S-labeled) (human, UniProt O00220 1-468, limits assumed)
[3] = biological target: RAIDD (in vitro translated, 35S-labeled) (human, UniProt P78560 1-199)
Chain of RAIDD (in vitro translated, 35S-labeled) (P78560 whole entry): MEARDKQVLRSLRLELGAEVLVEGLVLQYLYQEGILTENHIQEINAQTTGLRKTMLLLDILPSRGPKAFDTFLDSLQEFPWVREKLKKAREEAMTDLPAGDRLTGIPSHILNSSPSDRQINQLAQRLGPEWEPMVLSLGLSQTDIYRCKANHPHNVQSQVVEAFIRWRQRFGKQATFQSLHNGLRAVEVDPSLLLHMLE

[4] = biological target: T2, RIP (in vitro translated, 35S-labeled) (human, UniProt Q13546 1-671, limits assumed)
T2 sequence (looked up): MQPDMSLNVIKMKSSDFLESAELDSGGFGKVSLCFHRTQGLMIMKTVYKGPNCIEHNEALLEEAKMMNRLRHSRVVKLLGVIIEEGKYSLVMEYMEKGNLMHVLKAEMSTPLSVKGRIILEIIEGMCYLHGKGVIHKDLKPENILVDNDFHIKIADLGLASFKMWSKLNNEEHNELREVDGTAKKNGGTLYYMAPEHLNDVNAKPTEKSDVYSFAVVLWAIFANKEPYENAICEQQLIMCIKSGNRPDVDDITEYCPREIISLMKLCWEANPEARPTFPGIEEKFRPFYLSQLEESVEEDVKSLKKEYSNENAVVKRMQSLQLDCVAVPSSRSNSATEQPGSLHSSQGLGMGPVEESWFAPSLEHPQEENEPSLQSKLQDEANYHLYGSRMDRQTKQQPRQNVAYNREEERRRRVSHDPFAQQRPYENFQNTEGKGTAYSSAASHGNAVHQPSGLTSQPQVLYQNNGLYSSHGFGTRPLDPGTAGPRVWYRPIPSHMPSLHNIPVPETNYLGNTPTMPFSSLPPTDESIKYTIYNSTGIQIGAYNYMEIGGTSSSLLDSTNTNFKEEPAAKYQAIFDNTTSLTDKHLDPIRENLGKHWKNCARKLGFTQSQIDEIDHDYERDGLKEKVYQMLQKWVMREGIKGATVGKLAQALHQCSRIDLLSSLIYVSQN

[5] = biological target: c-Flip (in vitro translated, 35S-labeled) (human, UniProt O15519 1-480)
Chain of c-Flip (in vitro translated, 35S-labeled) (O15519 whole entry): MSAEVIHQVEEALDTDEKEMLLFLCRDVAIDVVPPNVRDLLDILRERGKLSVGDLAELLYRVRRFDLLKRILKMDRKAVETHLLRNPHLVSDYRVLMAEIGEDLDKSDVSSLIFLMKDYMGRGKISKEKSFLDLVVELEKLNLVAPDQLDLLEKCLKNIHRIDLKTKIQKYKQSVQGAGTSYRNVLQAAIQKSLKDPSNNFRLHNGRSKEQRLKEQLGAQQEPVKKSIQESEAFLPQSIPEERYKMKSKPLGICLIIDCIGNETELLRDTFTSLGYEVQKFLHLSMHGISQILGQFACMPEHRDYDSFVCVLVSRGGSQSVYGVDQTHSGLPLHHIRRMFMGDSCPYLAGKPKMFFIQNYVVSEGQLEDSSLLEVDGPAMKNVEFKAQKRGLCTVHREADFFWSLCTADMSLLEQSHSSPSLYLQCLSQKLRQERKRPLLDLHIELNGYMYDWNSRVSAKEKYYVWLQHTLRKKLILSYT

[6] = biological target: Dr-5 (in vitro translated, 35S-labeled) (human, UniProt O14763 1-440, limits assumed)
[7] = biological target: T3, TNF-RI (in vitro translated, 35S-labeled) (human, UniProt P19438 1-455, limits assumed)
T3 construct: also called TNFR1
T3 sequence (looked up): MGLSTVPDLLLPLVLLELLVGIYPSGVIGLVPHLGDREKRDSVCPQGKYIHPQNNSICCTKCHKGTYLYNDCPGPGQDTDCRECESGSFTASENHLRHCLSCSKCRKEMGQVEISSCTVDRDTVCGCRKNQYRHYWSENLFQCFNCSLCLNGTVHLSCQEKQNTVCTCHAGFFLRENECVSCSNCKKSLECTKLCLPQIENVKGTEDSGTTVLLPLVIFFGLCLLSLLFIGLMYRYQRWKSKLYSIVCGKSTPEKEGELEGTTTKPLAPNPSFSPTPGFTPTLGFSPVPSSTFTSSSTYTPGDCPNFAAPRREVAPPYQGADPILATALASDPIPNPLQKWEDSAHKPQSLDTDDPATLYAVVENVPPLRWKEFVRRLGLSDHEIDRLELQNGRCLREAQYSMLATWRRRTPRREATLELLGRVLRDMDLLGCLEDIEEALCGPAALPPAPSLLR

[8] = biological target: T4, FADD (in vitro translated, 35S-labeled) (human, UniProt Q13158 1-208)
T4 sequence (looked up): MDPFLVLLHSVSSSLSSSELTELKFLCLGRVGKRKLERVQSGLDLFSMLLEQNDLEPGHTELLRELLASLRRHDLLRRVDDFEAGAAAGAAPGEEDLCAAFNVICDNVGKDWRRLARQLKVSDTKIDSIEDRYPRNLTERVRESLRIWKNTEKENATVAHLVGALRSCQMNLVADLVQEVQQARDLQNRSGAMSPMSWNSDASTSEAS

Measured: binding result

B1: GST-CD40 (cytosolic domain) (other, UniProt P25942 216-277, looked up)
chain: KKVAKKPTNKAPHPKQEPQEINFPDDLPGSNTAAPVQETLHGCQPVTQEDGKESRISVQERQ
notes: domain: cytosolic domain; Control fusion protein; not shown: glutathione S-transferase
no binding: all assays above
